The record followed here is PMC3561149, “Bifurcation of Arabidopsis NLR Immune Signaling via Ca2+-Dependent Protein Kinases”.

Numbering of substitutions follows the chain as printed.

Series [1] deals with T1, MBP-WRKY48 (Arabidopsis thaliana (Col-0), UniProt Q9FGZ4 1-399). Nature of the series: EMSA; unphosphorylated; EMSA: 5x binding buffer (4% glycerol, 1 mM MgCl2, 0.5 mM EDTA, 0.5 mM DTT, 10 mM Tris-HCl pH 7.5), 1 ug poly-dIdC, BSA, 2.5 ug protein, ~20,000 cpm probe, room. Particulars: protein: recombinant; tags: MBP (pMAL-C2); label: 32P 5' end label.
Series [2] has as its target T1, MBP-WRKY48. Nature of the series: competition; unlabeled competitor vs labeled W-boxes; binding largely reduced; EMSA: 5x binding buffer (4% glycerol, 1 mM MgCl2, 0.5 mM EDTA, 0.5 mM DTT, 10 mM Tris-HCl pH 7.5), 1 ug poly-dIdC, BSA, 2.5 ug protein, ~20,000 cpm probe, room. The settings on record: protein: recombinant; tags: MBP (pMAL-C2); label: none.

T1 sequence (Q9FGZ4 whole entry): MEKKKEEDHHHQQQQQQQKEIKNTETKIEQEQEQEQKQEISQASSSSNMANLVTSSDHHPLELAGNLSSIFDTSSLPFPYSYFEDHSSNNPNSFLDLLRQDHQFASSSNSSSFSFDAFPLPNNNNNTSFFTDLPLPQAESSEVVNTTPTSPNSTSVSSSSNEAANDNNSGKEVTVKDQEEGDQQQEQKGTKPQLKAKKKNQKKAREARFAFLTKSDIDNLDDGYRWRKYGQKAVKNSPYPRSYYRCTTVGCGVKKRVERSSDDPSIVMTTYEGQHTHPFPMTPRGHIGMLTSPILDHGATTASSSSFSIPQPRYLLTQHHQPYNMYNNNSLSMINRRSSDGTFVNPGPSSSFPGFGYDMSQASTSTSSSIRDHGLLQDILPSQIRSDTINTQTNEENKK

B1: W-boxes probe (four W-boxes of WRKY46 promoter) (dsDNA)
DNA 1: CTGTCAATTCTTTGACCCCAGTTGACGAATGTCAATT
DNA 2: AATTGACATTCGTCAACTGGGGTCAAAGAATTGACAG
On to B1, for which, in the series with MBP-WRKY48 [1], the binding result was “binds”.

B2: mW-boxes probe (mutated W-boxes) (dsDNA)
DNA 1: B1 DNA 1 with G3T, C16A, C26A, G31T
DNA 2: B1 DNA 2 with C7A, G12T, G22T, C35A
Take B2: the binding result with MBP-WRKY48 [1] is given as “no binding”.

B3: unlabeled W-boxes oligonucleotide (specific competitor) (dsDNA)
DNA 1: B1 DNA 1
DNA 2: B1 DNA 2
With B3, the binding result with MBP-WRKY48 [2] was “binds”.
